What was measured:
Assay type in all cases: cell-based
[1] = test system: Escherichia coli D31; assay: Antibacterial assay, inhibition of growth in liquid phase (MIC); conditions: Escherichia coli D31, 24 h at 30° C.
Protocol: The bacteria are cultured with a starting optical density A600=0.001 in “Poor-Broth” nutrient medium (1% bactotryptone, 0.5% NaCl w/v).
The fractions were tested by inhibition of growth in liquid phase.
10 μl aliquots of each fraction to be tested are incubated in microtitre plates with 100 μl of a suspension of bacteria at the midlogarithmic phase.
The bacterial growth is measured by determining the optical density A600 after an incubation of 24 hours at 30° C.
An identical procedure was used to determine the minimum inhibitory concentration (MIC) of the molecules on these bacterial strains. The MIC values correspond to an interval a-b of peptide concentrations, where a represents the highest concentration at which bacterial growth is observed, and b is the lowest concentration which causes 100% inhibition of growth.

[2] = test system: Micrococcus luteus; assay: Measurement of the bacteriostatic properties (CFU over time); conditions: for colonies formed (cfu): 18 μM (8 times MIC)
Protocol: A midlogarithmic phase culture of Micrococcus luteus in the “Poor Broth” medium defined above was incubated at 30° C. in the presence of the peptide or (as control) of water. The final concentration of the molecules tested is 8 times higher than the MIC. 20-μl alquots are collected at various time intervals and cultured on nutrient agar plate. The number of colonies formed (CFU) is determined after 24 hours of incubation at 37° C.

[3] = test system: Fusarium oxysporum; assay: Antifungal activity, inhibition of growth in liquid phase
Protocol: (§1) The antifungal activity was determined against Neurospora crassa and Fusarium oxysporum by a test of inhibition of growth in liquid phase. 80 μl of fungal spores (final concentration: 10^4 spores/ml) are suspended in ½ Potato Dextrose Broth (DIFCO) supplemented with tetracycline (10 μg/ml) and cefotaxime (100 μg/ml). This suspension was added to 10 μl of the fraction to be tested in microtitre plates. The final volume is brought to 100 μl by addition of 10 μl of water. Growth inhibition can be observed under a microscope after 24 hours of incubation at 25° C. in the dark, and measured by the variation in the optical density at 600 nm after 48 hours.

[4] = test system: Neurospora crassa; assay: as above
Protocol: as §1

B1: Penaeidin 3: antimicrobial peptide of 62 amino acids, about 6.6 kDa, from Penaeus vannamei haemolymph (protein, listed as Penaeus vannamei)
chain: EVYKGGYTRPIPRPPPFVRPLPGGPIGPYNGCPVSCRGISFSQARSCCSRLGRCCHVGKGYS
Which results are given for B1?
MIC [1]: > 5 µM; colonies formed (cfu) ([2]; incubation time 1 min): 4.30 10^4 cfu/ml; colonies formed (cfu) ([2]; incubation time 30 min): 4.45 10^4 cfu/ml; colonies formed (cfu) ([2]; incubation time 2 h): 3.15 10^4 cfu/ml; colonies formed (cfu) ([2]; incubation time 4 h): 4.60 10^4 cfu/ml; colonies formed (cfu) ([2]; incubation time 7 h): 4.50 10^4 cfu/ml; colonies formed (cfu) ([2]; incubation time 24 h): 5.60 10^4 cfu/ml; bacterial growth ([2]; 18 μM, after an incubation of 24 hours): no bacterial growth is observed; kind of antibacterial effect ([2]; 18 μM, number of colonies constant over sample collections): bacteriostatic effect; MIC [3]: > 5 µM; MIC [4]: > 5 µM

Source: patent US6642203B1, “Crustacean antimicrobial peptides” (Institut Francais de Recherche pour l'Exploitation de la Mer, priority 1997, dated 2003)
